Experiments:
CEA = CEA (UniProt P06731); experiment: SE-HPLC of 125I-TF2 mixed with a 20-fold molar excess of CEA
[1] = biological target: fusion protein containing the A3B3 domain of CEA (UniProt P06731); experiment: competitive ELISA vs HRP-conjugated hMN-14 IgG (1 nM) on the A3B3 fusion protein
Chain of fusion protein containing the A3B3 domain of CEA (P06731 499-676): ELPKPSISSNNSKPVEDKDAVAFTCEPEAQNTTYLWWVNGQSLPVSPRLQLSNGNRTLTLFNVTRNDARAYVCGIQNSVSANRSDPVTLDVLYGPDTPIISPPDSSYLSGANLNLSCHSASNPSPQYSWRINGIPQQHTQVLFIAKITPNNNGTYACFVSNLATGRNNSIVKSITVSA

Chain of CEA (P06731 35-685 limits assumed): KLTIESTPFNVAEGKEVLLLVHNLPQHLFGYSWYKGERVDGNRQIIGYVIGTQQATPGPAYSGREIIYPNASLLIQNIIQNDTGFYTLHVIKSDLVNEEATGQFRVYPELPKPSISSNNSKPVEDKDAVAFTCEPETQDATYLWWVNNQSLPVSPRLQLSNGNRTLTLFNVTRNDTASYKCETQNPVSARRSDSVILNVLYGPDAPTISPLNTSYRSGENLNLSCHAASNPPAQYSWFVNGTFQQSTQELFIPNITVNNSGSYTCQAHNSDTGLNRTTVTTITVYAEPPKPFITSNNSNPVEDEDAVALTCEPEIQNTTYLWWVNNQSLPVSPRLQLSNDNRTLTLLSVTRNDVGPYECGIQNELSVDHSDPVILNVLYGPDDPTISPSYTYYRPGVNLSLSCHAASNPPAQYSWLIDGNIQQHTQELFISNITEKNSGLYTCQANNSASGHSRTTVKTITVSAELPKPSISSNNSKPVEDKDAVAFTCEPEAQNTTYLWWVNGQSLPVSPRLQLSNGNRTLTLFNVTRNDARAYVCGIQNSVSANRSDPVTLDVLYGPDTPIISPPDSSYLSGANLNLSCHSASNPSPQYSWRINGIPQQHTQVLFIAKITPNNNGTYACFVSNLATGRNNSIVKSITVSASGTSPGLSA

percent shifted to a high molecular weight species (CEA): 95%
fold avidity against TF1 [1]: 2 fold
Substance: TF2 (bispecific antibody)

— patent publication US20060228300A1
